Test results as given in article PMC12945441 (Science (New York, N.Y.), 2022).

Target: prefusion SARS-CoV-2 Omicron BA.1 S ectodomain trimer (SARS-CoV-2 Omicron BA.1 (B.1.1.529), strain)
Test: cryo-EM structure
Conditions: both partners purified

B1: S2X324 Fab fragment (Fab, V domains shown)
VH: QITLKESGPTLVKPTQTLTLTCTFSGFSVTTSGVGVGWIRQPPGKALEYLALIYWDDDKRYSTSLKSRLTITKDTSKNQVVLTMTNMDPVDTATYYCARHTIPSIFDYWGQGILVTVSS
VL: QPVLTQPASVSGSPGQSITISCTATSSDVGNYNYVSWYQHHPGKAPKLMIYEVSNRPSGVSNRFSGSKSGNTASLTISGLQAEDEADYYCSSYTSSSLLFGGGTKLTVL
- stoichiometry N: 3 Fabs per S trimer
